Legend:
HLA-A*32:15 = test: IEDB peptide-MHC binding, purified MHC/competitive/fluorescence; filed as Kd, often an IC50 or EC50 that approximates it; ≥ and ≤ were set here for values at or beyond the usual limits of such assays; conditions: source organism: Mycobacterium tuberculosis variant bovis BCG str. Pasteur 1173P2
HLA-C*14:02 [1] = test: as above
HLA-B*83:01 = test: as above
HLA-B*15:42 = test: as above
HLA-B*45:06 = test: as above
HLA-B*46:01 = test: as above; conditions: source organism: Mycobacterium tuberculosis variant bovis BCG str. Pasteur 1173P2
HLA-A*02:03 = test: IEDB peptide-MHC binding, purified MHC/direct/fluorescence; filed as Kd, often an IC50 or EC50 that approximates it; ≥ and ≤ were set here for values at or beyond the usual limits of such assays; conditions: source organism: Mycobacterium tuberculosis str. Haarlem
HLA-A*69:01 = test: as above; conditions: source organism: Mycobacterium tuberculosis
HLA-C*05:01 = test: as above; conditions: source organism: Mycobacterium tuberculosis variant bovis BCG str. Pasteur 1173P2
HLA-C*08:02 = test: as above
HLA-A*80:01 = test: IEDB peptide-MHC binding, purified MHC/competitive/fluorescence; filed as Kd, often an IC50 or EC50 that approximates it; ≥ and ≤ were set here for values at or beyond the usual limits of such assays; conditions: source organism: Rattus norvegicus
HLA-A*01:01 [2] = test: as above; conditions: source organism: Rattus norvegicus
HLA-A*29:02 [3] = test: as above; conditions: source organism: Rattus norvegicus
HLA-C*04:01 = test: as above; conditions: source organism: Rattus norvegicus
HLA-B*40:02 = test: IEDB peptide-MHC binding, purified MHC/competitive/fluorescence; ≥ and ≤ were set here for values at or beyond the usual limits of such assays; conditions: source organism: Homo sapiens
HLA-B*51:01 = test: as above; conditions: source organism: Homo sapiens
HLA-B*37:01 = test: as above; conditions: source organism: Homo sapiens
HLA-A*24:02 = test: as above; conditions: source organism: Homo sapiens
HLA-B*14:02 = test: as above; conditions: source organism: Homo sapiens
HLA-A*03:01 = test: as above; conditions: source organism: Homo sapiens
HLA-B*53:01 = test: as above; conditions: source organism: Homo sapiens
HLA-B*07:02 = test: as above; conditions: source organism: Homo sapiens
HLA-A*68:02 = test: as above; conditions: source organism: Homo sapiens
HLA-A*11:01 = test: as above; conditions: source organism: Homo sapiens
HLA-B*58:01 = test: as above; conditions: source organism: Homo sapiens
HLA-B*08:01 = test: as above; conditions: source organism: Homo sapiens
HLA-A*01:01 [4] = test: as above; conditions: source organism: Homo sapiens
HLA-A*02:01 = test: as above; conditions: source organism: Homo sapiens
HLA-B*44:03 = test: as above; conditions: source organism: Homo sapiens
HLA-B*18:01 = test: as above; conditions: source organism: Homo sapiens
HLA-A*31:01 = test: as above; conditions: source organism: Homo sapiens
HLA-A*29:02 [5] = test: as above; conditions: source organism: Homo sapiens
HLA-A*25:01 = test: as above; conditions: source organism: Homo sapiens
HLA-B*35:01 = test: as above; conditions: source organism: Homo sapiens
HLA-C*14:02 [6] = test: IEDB peptide-MHC binding, purified MHC/direct/fluorescence; filed as Kd, often an IC50 or EC50 that approximates it; ≥ and ≤ were set here for values at or beyond the usual limits of such assays; conditions: source organism: Homo sapiens
HLA-A*68:23 = test: IEDB peptide-MHC binding, purified MHC/competitive/fluorescence; filed as Kd, often an IC50 or EC50 that approximates it; ≥ and ≤ were set here for values at or beyond the usual limits of such assays; conditions: source organism: Corynebacterium glutamicum ATCC 13032
HLA-C*06:02 = test: as above; conditions: source organism: Corynebacterium glutamicum ATCC 13032
HLA-C*15:02 = test: IEDB peptide-MHC binding, purified MHC/direct/fluorescence; filed as Kd, often an IC50 or EC50 that approximates it; ≥ and ≤ were set here for values at or beyond the usual limits of such assays; conditions: source organism: Corynebacterium glutamicum ATCC 13032
[7] = source organism: Mycobacterium tuberculosis variant bovis BCG str. Pasteur 1173P2
[8] = source organism: Rattus norvegicus
[9] = source organism: Corynebacterium glutamicum ATCC 13032

FMFDYIPPV
Kd (HLA-A*32:15): 203 nM
Kd (HLA-C*14:02 [1]; [7]): 5.7 nM
Kd (HLA-B*83:01; [7]): ≥ 5000 nM
Kd (HLA-B*15:42; [7]): 3860 nM
Kd (HLA-B*45:06; [7]): ≥ 5000 nM
Kd (HLA-B*46:01): 10.1 nM
Kd (HLA-A*02:03): ≤ 1 nM
Kd (HLA-A*69:01): 1.3 nM
Kd (HLA-C*05:01): ≥ 20000 nM
Kd (HLA-C*08:02; [7]): 368 nM

YYRYPTGESY
Kd (HLA-C*14:02 [1]; [8]): ≤ 0.1 nM
Kd (HLA-A*80:01): 1460 nM
Kd (HLA-A*01:01 [2]): ≥ 20000 nM
Kd (HLA-B*83:01; [8]): ≥ 5000 nM
Kd (HLA-B*15:42; [8]): ≥ 5000 nM
Kd (HLA-B*45:06; [8]): ≥ 5000 nM
Kd (HLA-A*29:02 [3]): ≤ 0.1 nM
Kd (HLA-C*04:01): ≥ 5000 nM

FPHTELANL
IC50 (HLA-B*40:02): 734 nM
IC50 (HLA-B*51:01): 685 nM
IC50 (HLA-B*37:01): ≥ 20000 nM
IC50 (HLA-A*24:02): ≥ 20000 nM
IC50 (HLA-B*14:02): ≥ 20000 nM
IC50 (HLA-A*03:01): ≥ 20000 nM
IC50 (HLA-B*53:01): 221 nM
IC50 (HLA-B*07:02): 112 nM
IC50 (HLA-A*68:02): 224 nM
IC50 (HLA-A*11:01): ≥ 20000 nM
IC50 (HLA-B*58:01): ≥ 20000 nM
IC50 (HLA-B*08:01): 1080 nM
IC50 (HLA-A*01:01 [4]): ≥ 20000 nM
IC50 (HLA-A*02:01): ≥ 20000 nM
IC50 (HLA-B*44:03): ≥ 20000 nM
IC50 (HLA-B*18:01): 422 nM
IC50 (HLA-A*31:01): ≥ 20000 nM
IC50 (HLA-A*29:02 [5]): ≥ 20000 nM
IC50 (HLA-A*25:01): ≥ 20000 nM
IC50 (HLA-B*35:01): 8.5 nM
Kd (HLA-C*14:02 [6]): 792 nM

RIFPATHYV
Kd (HLA-A*68:23): 197 nM
Kd (HLA-C*06:02): 35.7 nM
Kd (HLA-B*83:01; [9]): ≥ 5000 nM
Kd (HLA-B*15:42; [9]): ≥ 5000 nM
Kd (HLA-B*45:06; [9]): ≥ 5000 nM
Kd (HLA-A*69:01): 18.8 nM
Kd (HLA-C*15:02): 17 nM
Kd (HLA-C*08:02; [9]): ≥ 20000 nM
